Laboratory results as given in patent US20170101454A1 (Novo Nordisk, published 2017).
Starred links: 1 amine or outer side, 2 acyl side, 3 side chain; linkers in the order of their positions; H or OH if unused. Non-standard residues stand in square brackets, D forms with d. Groups on a side chain read outwards from the residue. No end group written: not given here. *: point of attachment. C18 diacid = O=C(O)CCCCCCCCCCCCCCCCC(=O)*; γGlu = O=C(O)[C@H](CCC(=O)[*:2])N[*:1]; AEEA = NCCOCCOCC(=O)O; Aib = CC(C)(N)C(=O)O

Experiments:
human GLP-1 receptor [1] = biological target: T1, human GLP-1 receptor (human, UniProt P43220 24-463); experiment: cell-based or functional assay
human glucagon receptor [2] = biological target: T2, human glucagon receptor (human, UniProt P47871 26-477); experiment: cell-based or functional assay
T2 sequence (P47871 26-477): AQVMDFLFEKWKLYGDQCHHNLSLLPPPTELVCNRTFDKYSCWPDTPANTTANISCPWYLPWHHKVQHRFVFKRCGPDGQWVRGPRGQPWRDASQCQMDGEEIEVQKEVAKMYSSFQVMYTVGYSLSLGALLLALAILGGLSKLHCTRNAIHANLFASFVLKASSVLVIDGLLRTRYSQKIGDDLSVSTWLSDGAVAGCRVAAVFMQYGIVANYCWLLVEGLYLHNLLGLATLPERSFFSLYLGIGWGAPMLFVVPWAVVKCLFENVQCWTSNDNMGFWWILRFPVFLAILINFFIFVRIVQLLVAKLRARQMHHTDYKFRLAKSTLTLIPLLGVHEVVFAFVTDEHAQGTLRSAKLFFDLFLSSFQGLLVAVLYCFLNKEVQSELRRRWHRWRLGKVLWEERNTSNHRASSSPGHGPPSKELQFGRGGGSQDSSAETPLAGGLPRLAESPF

human GLP-1 receptor [3] = biological target: T1, human GLP-1 receptor; experiment: displacement of [125I]-GLP-1-(7-36)NH2 from BHK membranes with human GLP-1R, SPA, no serum albumin
human glucagon receptor [4] = biological target: T2, human glucagon receptor; experiment: displacement of [125I]-glucagon from BHK membranes with human glucagon receptor, SPA, no serum albumin

B1: N^ε29-[(4S)-4-carboxy-4-[[(4S)-4-carboxy-4-[[2-[2-[2-[[2-[2-[2-[[(4S)-4-carboxy-4-(17-carboxyheptadecanoylamino)butanoyl]amino]ethoxy]ethoxy]acetyl]amino]ethoxy … (peptide)
peptide: H[Aib]QGTFTSDLSKYLDARRARDFVQWLISK([γGlu-γGlu-AEEA-AEEA-γGlu-C18 diacid])-NH2
modifications: N-terminus assumed
SMILES: CC[C@H](C)[C@H](NC(=O)[C@H](CC(C)C)NC(=O)[C@H](Cc1c[nH]c2ccccc12)NC(=O)[C@H](CCC(N)=O)NC(=O)[C@@H](NC(=O)[C@H](Cc1ccccc1)NC(=O)[C@H](CC(=O)O)NC(=O)[C@H](CCCNC(=N)N)NC(=O)[C@H](C)NC(=O)[C@H](CCCNC(=N)N)NC(=O)[C@H](CCCNC(=N)N)NC(=O)[C@H](C)NC(=O)[C@H](CC(=O)O)NC(=O)[C@H](CC(C)C)NC(=O)[C@H](Cc1ccc(O)cc1)NC(=O)[C@H](CCCCN)NC(=O)[C@H](CO)NC(=O)[C@H](CC(C)C)NC(=O)[C@H](CC(=O)O)NC(=O)[C@H](CO)NC(=O)[C@@H](NC(=O)[C@H](Cc1ccccc1)NC(=O)[C@@H](NC(=O)CNC(=O)[C@H](CCC(N)=O)NC(=O)C(C)(C)NC(=O)[C@@H](N)Cc1c[nH]cn1)[C@@H](C)O)[C@@H](C)O)C(C)C)C(=O)N[C@@H](CO)C(=O)N[C@@H](CCCCNC(=O)CC[C@H](NC(=O)CC[C@H](NC(=O)COCCOCCNC(=O)COCCOCCNC(=O)CC[C@H](NC(=O)CCCCCCCCCCCCCCCCC(=O)O)C(=O)O)C(=O)O)C(=O)O)C(N)=O
notes: also called Chem. 27; Chem 27
For B1, the “GLP-1R EC50 (pM) [Assay (I)(a)], CRE luciferase reporter, BHK cells” value (“GLP-1R EC50 (pM) [Assay (I)(a)]” below) (human GLP-1 receptor [1]) was 3 pM, the “GlucagonR EC50 (pM), [Assay (I)(b)], CRE luciferase reporter, BHK cells” value (shortened to “GlucagonR EC50 (pM), [Assay (I)(b)]”) (human glucagon receptor [2]) was 66 pM and the IC50 (human GLP-1 receptor [3]) was 0.2 nM. It also gave an IC50 (human glucagon receptor [4]) of 19.1 nM.

B2: N^ε29-[(4S)-4-carboxy-4-[[(4S)-4-carboxy-4-[[2-[2-[2-[[2-[2-[2-[[(4S)-4-carboxy-4-(17-carboxyheptadecanoylamino)butanoyl]amino]ethoxy]ethoxy]acetyl]amino]ethoxy … (peptide)
peptide: H[Aib]QGTFTSDLSKYLDARRAREFVQWLISK([γGlu-γGlu-AEEA-AEEA-γGlu-C18 diacid])-NH2
modifications: N-terminus assumed
SMILES: CC[C@H](C)[C@H](NC(=O)[C@H](CC(C)C)NC(=O)[C@H](Cc1c[nH]c2ccccc12)NC(=O)[C@H](CCC(N)=O)NC(=O)[C@@H](NC(=O)[C@H](Cc1ccccc1)NC(=O)[C@H](CCC(=O)O)NC(=O)[C@H](CCCNC(=N)N)NC(=O)[C@H](C)NC(=O)[C@H](CCCNC(=N)N)NC(=O)[C@H](CCCNC(=N)N)NC(=O)[C@H](C)NC(=O)[C@H](CC(=O)O)NC(=O)[C@H](CC(C)C)NC(=O)[C@H](Cc1ccc(O)cc1)NC(=O)[C@H](CCCCN)NC(=O)[C@H](CO)NC(=O)[C@H](CC(C)C)NC(=O)[C@H](CC(=O)O)NC(=O)[C@H](CO)NC(=O)[C@@H](NC(=O)[C@H](Cc1ccccc1)NC(=O)[C@@H](NC(=O)CNC(=O)[C@H](CCC(N)=O)NC(=O)C(C)(C)NC(=O)[C@@H](N)Cc1c[nH]cn1)[C@@H](C)O)[C@@H](C)O)C(C)C)C(=O)N[C@@H](CO)C(=O)N[C@@H](CCCCNC(=O)CC[C@H](NC(=O)CC[C@H](NC(=O)COCCOCCNC(=O)COCCOCCNC(=O)CC[C@H](NC(=O)CCCCCCCCCCCCCCCCC(=O)O)C(=O)O)C(=O)O)C(=O)O)C(N)=O
notes: also called Chem. 28; Chem 28
In the case of B2, the “GLP-1R EC50 (pM) [Assay (I)(a)]” value (human GLP-1 receptor [1]) is reported as 3 pM, the “GlucagonR EC50 (pM), [Assay (I)(b)]” value (human glucagon receptor [2]) is reported as 36 pM and the IC50 (human GLP-1 receptor [3]) is reported as 0.2 nM. The IC50 (human glucagon receptor [4]) was 8.6 nM.

B3: N^ε29-[(4S)-4-carboxy-4-[[(4S)-4-carboxy-4-[[2-[2-[2-[[2-[2-[2-[[(4S)-4-carboxy-4-(17-carboxyheptadecanoylamino)butanoyl]amino]ethoxy]ethoxy]acetyl]amino]ethoxy … (peptide)
chain: H[Aib]QGTFTSDLSKYLDLRRARDFVAWLINK([γGlu-γGlu-AEEA-AEEA-γGlu-C18 diacid])-NH2
modifications: N-terminus assumed
SMILES: CC[C@H](C)[C@H](NC(=O)[C@H](CC(C)C)NC(=O)[C@H](Cc1c[nH]c2ccccc12)NC(=O)[C@H](C)NC(=O)[C@@H](NC(=O)[C@H](Cc1ccccc1)NC(=O)[C@H](CC(=O)O)NC(=O)[C@H](CCCNC(=N)N)NC(=O)[C@H](C)NC(=O)[C@H](CCCNC(=N)N)NC(=O)[C@H](CCCNC(=N)N)NC(=O)[C@H](CC(C)C)NC(=O)[C@H](CC(=O)O)NC(=O)[C@H](CC(C)C)NC(=O)[C@H](Cc1ccc(O)cc1)NC(=O)[C@H](CCCCN)NC(=O)[C@H](CO)NC(=O)[C@H](CC(C)C)NC(=O)[C@H](CC(=O)O)NC(=O)[C@H](CO)NC(=O)[C@@H](NC(=O)[C@H](Cc1ccccc1)NC(=O)[C@@H](NC(=O)CNC(=O)[C@H](CCC(N)=O)NC(=O)C(C)(C)NC(=O)[C@@H](N)Cc1c[nH]cn1)[C@@H](C)O)[C@@H](C)O)C(C)C)C(=O)N[C@@H](CC(N)=O)C(=O)N[C@@H](CCCCNC(=O)CC[C@H](NC(=O)CC[C@H](NC(=O)COCCOCCNC(=O)COCCOCCNC(=O)CC[C@H](NC(=O)CCCCCCCCCCCCCCCCC(=O)O)C(=O)O)C(=O)O)C(=O)O)C(N)=O
In the case of B3, the “GLP-1R EC50 (pM) [Assay (I)(a)]” value (human GLP-1 receptor [1]) is reported as 3 pM, the “GlucagonR EC50 (pM), [Assay (I)(b)]” value (human glucagon receptor [2]) is reported as 55 pM and the IC50 (human GLP-1 receptor [3]) is reported as 0.4 nM. For the same binder, the IC50 (human glucagon receptor [4]) was 14 nM.
